Test results taken from CN106946990A.

Legend:
[1] = molecular target: Myc-GST融合蛋白 (Myc tag fused to glutathione [S-transferase]); test: indirect ELISA on coated Myc-GST (5 μg/mL), HRP anti-His secondary, 30 min at 70℃
[2] = molecular target: Myc-GST融合蛋白 (Myc tag fused to glutathione [S-transferase]); test: indirect ELISA on coated Myc-GST (5 μg/mL), HRP anti-His secondary, 30 min at 80℃
[3] = molecular target: Myc-GST融合蛋白 (Myc tag fused to glutathione [S-transferase]); test: indirect ELISA on coated Myc-GST (5 μg/mL), HRP anti-His secondary, 30 min at 90℃

B1: 针对c-Myc标签的单域重链抗体 (single-domain heavy-chain antibody against the c-Myc tag, SEQ ID NO.:1) (VHH, not shown: small tags and cut ends)
VHH: QLQLVESGGGLVQPGGSLRLSCSASGFAFNLFYMGWVRQAPGKGLEWVADIDNTGDKYYAESVEGRFTVSRDNAKKTLYLQMDSLKSEDTAQYYCLKGGCRETFSLCARGQGTQVTVSS
OD450 [1]: 1.5 OD450 | OD450 [2]: 1.4 OD450 | OD450 [3]: 1.1 OD450
